# Data published in patent publication US9340580B2, “Peptide with multiple epitopes” (priority 2007, dated 2016).
# “And” between values parts separate entries of the source, which are not always exact repeats. Equal entries are not always repeated. Where two headings read alike, the source gives them in different places. Where a SMILES comes first, the peptide text is derived from it.
# B1: Fel d 1 peptide EQVAQYKALPVVLENA (peptide)
# peptide: EQVAQYKALPVVLENA
# notes: Said to have been tested in an earlier study
# Key:
# [1] = solubility pre-screen in an aqueous, acidic milieu; format: physicochemical
# DRB1*0401 = DRB1*0401 (Homo sapiens, UniProt P01903+P01911, A100K/A169T/F76Y/I96L/K127E/L162R/M171V/N62H/P40V/Q125Y/R42H/S133A/S149N/S66Y/V115G/V209L/W38E); experiment: competitive MHC class II binding assay; conditions: control peptide Influenza haemagglutinin 307-319
# From the text: (§1) This is a characteristic of promiscuous HLA-DRB1* binders.
# DRB1*0701 = DRB1*0701 (Homo sapiens, UniProt P01903+P01911, A100R/A102G/A103Q/D57E/D86V/E43K/F76Y/K127E/L162R/M171V/P40G/Q125H/Q99D/R33Q/R42Y/R54Q/S133A/S66F/T210M/V115G/Y107V/Y59L/Y89S); experiment: competitive MHC class II binding assay; conditions: control peptide Influenza haemagglutinin 307-319
# From the text: as §1
# [2] = precipitation in the aqueous solution of the binding assay; format: physicochemical; conditions: read-out: Precipitation in assay: lowest concentration at which an insoluble white precipitate is seen
# From the text: as §1
# DQA1*0102/DQB1*0602 = DQA1*0102/DQB1*0602 (Homo sapiens, UniProt P01909+P01920, A157G/A45G/C70R/E118A/E183D/E77G/F83G/G63E/H151Q/H199R/H252R/H253Q/I129T/I235V/I88M/INS77G/K197Q/L117V/L119F/L178F/L71W/L74F/L85Q/L91A/L98M/N214S/P87R/Q116E/Q76K/R102G/R240Q/R75S/R78G/S102Y/S185I/S41F/S97I/T121G/T122I/T172A/T86R/V229M/V68A/V73E/Y34C/Y41F/Y58L); experiment: competitive MHC class II binding assay; conditions: control peptide Human Insulin B 1-15
# Method: as §1
# In addition, to identify lower affinity binders, the assay was also carried out under less stringent conditions. All the Der p binding peptides were seen to have a high ratio when tested against this allotype, showing they were low affinity binders compared to the control peptide. The DQA1*0102/DQB1*0602 binding assay uses a peptide from the B-chain of human insulin which is of lower affinity compared to those used in the DR assays. This dictates that the DQ assay is very sensitive and tends to produce very low ratio values for the strongest binders to this MHC Class II allotype. This sensitivity also accounts for the relatively higher number of DQ binding peptides within the panel screened. Finally, on closer analysis, the peptides identified as ligands for the DRB1*0101,*0401, *0701 superfamily, are found to incorporate a motif that is characteristic of promiscuous binders to this family of allotypes where: P1=Y, F, W, L, I, V, or M (Large aromatic or hydrophobic residue), P6=S, T, C, A, P, V, I, M (small, non-charged residue)
# DRB1*1101 = DRB1*1101 (Homo sapiens, UniProt P01903+P01911, A100R/A169T/A87E/I96F/K41T/L162R/M171V/P40S/Q125H/Q178H/Q39Y/Q99D/R42S/S66Y/T262R/V115G/W38E); experiment: competitive MHC class II binding assay; conditions: control peptide Influenza haemagglutinin 307-319
# From the text: as §1
# [3] = tested on: human MHC class II allotypes; experiment: competitive MHC class II binding assay, statements over the panel; conditions: peptides of reduced purity
# From the text: as §1
# This is of significance as purities were seen to vary from 60-90%. This would have a considerable effect on the ability of a peptide to compete if it is relatively impure. […] Therefore, if purity is taken into consideration, they may in fact have an equivalent affinity to a peptide of a higher purity.
# [4] = target: T1, human MHC class II allotype HLA-DRB1*1501 (human); experiment: competitive MHC class II binding assay; competitor control peptide myelin basic protein 85-99
# T1 construct: Source and construct of the MHC protein in the assay are not described
# [5] = target: T2, human MHC class II allotype HLA-DRB1*0701 (human); experiment: competitive MHC class II binding assay; competitor control peptide influenza haemagglutinin 307-319;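 note: each test peptide was scored on how well it displaces the known control binder from each human MHC class II allotype studied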
# T2 construct: Source and construct of the MHC protein in the assay are not described
# [6] = target: T3, human MHC class II allotype HLA-DRB1*1101 (human); experiment: as above
# T3 construct: Source and construct of the MHC protein in the assay are not described
# [7] = target: T4, human MHC class II allotype HLA-DRB1*1301 (human); experiment: competitive MHC class II binding assay; competitor control peptide HLA-DQB1*0603 21-36
# T4 construct: Source and construct of the MHC protein in the assay are not described
# [8] = target: T5, human MHC class II allotype DQA1*0102/DQB1*0602 (human, UniProt P01920 33-230, limits assumed); experiment: competitive MHC class II binding assay; competitor control peptide human insulin B 1-15
# T5 construct: Source and construct of the MHC protein in the assay are not described
# T5 MHC II alpha: not shown
# T5 MHC II beta: not shown
# [9] = target: T6, human MHC class II allotype HLA-DRB1*0101 (human); experiment: competitive MHC class II binding assay; competitor control peptide influenza haemagglutinin 307-319;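 note: each test peptide was scored on how well it displaces the known control binder from each human MHC class II allotype studied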
# T6 construct: Source and construct of the MHC protein in the assay are not described
# [10] = target: T7, human MHC class II allotype HLA-DRB1*0301 (human); experiment: competitive MHC class II binding assay; competitor control peptide hsp 65 2-16
# T7 construct: Source and construct of the MHC protein in the assay are not described
# [11] = target: T8, human MHC class II allotype HLA-DRB1*0401 (human); experiment: competitive MHC class II binding assay; competitor control peptide influenza haemagglutinin 307-319;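 note: each test peptide was scored on how well it displaces the known control binder from each human MHC class II allotype studied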
# T8 construct: Source and construct of the MHC protein in the assay are not described
# [12] = target: T9, human MHC class II allotype HLA-DRB1*1101 (human)
# T9 chain 1: not shown
# T9 chain 2: not shown
# [13] = target: T10, human MHC class II allotype HLA-DRB1*0701 (human)
# T10 chain 1: not shown
# T10 chain 2: not shown
# [14] = target: T11, human MHC class II allotype DQA1*0102/DQB1*0602 (human), P01920
# T11 chain 1: not shown
# T11 chain 2: not shown
# [15] = target: T12, human MHC class II allotype HLA-DRB1*1501 (human)
# T12 chain 1: not shown
# T12 chain 2: not shown
# [16] = target: T1, human MHC class II allotype …; experiment: competitive MHC class II binding assay, high stringency screen; competitor control peptide myelin basic protein 85-99
molecule,measurement,setting,value
CSCC[C@H](NC(=O)[C@H](CO)NC(=O)[C@@H](NC(=O)[C@@H](NC(=O)[C@H](CC(=O)O)NC(=O)[C@H](CC(=O)O)NC(=O)[C@@H](N)Cc1c[nH]cn1)C(C)C)C(C)C)C(=O)N[C@@H](CCC(=O)O)C(=O)N[C@@H](Cc1ccc(O)cc1)C(=O)N[C@@H](CC(=O)O)C(=O)N[C@@H](CC(C)C)C(=O)N[C@@H](C)C(=O)N[C@@H](Cc1ccc(O)cc1)C(=O)N[C@@H](CCCCN)C(=O)N[C@@H](CC(C)C)C(=O)O [HDM39A] (H-HDDVVSMEYDLAYKL-OH; N-terminus and C-terminus assumed),Solubility test,[1],YES
same,"relative binding: ratio of peptide IC50 to control peptide IC50, DRB1*0401",DRB1*0401,76.19
same,"relative binding: ratio of peptide IC50 to control peptide IC50, DRB1*0701",DRB1*0701,0.71
same,solubility,[2],1000 µM and 1800 µg/mL
same,"relative binding: ratio of peptide IC50 to control peptide IC50, DQA1*0102 DQB1*0602",DQA1*0102/DQB1*0602,0.1
CSCC[C@H](NC(=O)[C@H](CO)NC(=O)[C@@H](N)C(C)C)C(=O)N[C@@H](CCC(=O)O)C(=O)N[C@@H](Cc1ccc(O)cc1)C(=O)N[C@@H](CC(=O)O)C(=O)N[C@@H](CC(C)C)C(=O)N[C@@H](C)C(=O)N[C@@H](Cc1ccc(O)cc1)C(=O)N[C@@H](CCCCN)C(=O)N[C@@H](CC(C)C)C(=O)NCC(=O)N[C@@H](CC(=O)O)C(=O)N[C@@H](CC(C)C)C(=O)N[C@@H](Cc1c[nH]cn1)C(=O)O [HDM40A] (H-VSMEYDLAYKLGDLH-OH; N-terminus and C-terminus assumed),Solubility test,[1],YES
same,"relative binding: ratio of peptide IC50 to control peptide IC50, DRB1*0701",DRB1*0701,2.29
same,"relative binding: ratio of peptide IC50 to control peptide IC50, DRB1*1101",DRB1*1101,6
same,solubility,[2],1000 µM and 1800 µg/mL
DGLEVDVPGIDPNACH (listed as Dermatophagoides pteronyssinus) [HDM23A],Solubility test,[1],YES
same,binding affinity in the competition assay (in words),[3],low affinity binding
"REALAQTHSAIAVI (Synthetic peptide, 69.6% purity) [HDM09A]",ratio of its own IC50 to that of the control peptide,[4],200
same,ratio of its own IC50 to that of the control peptide,[5],0.49
same,ratio of its own IC50 to that of the control peptide,[6],21.1
"LDMRNIQVRGLKQ (Synthetic peptide, 70.3% purity) [HDM33]",ratio of its own IC50 to that of the control peptide,[5],46.5
same,ratio of its own IC50 to that of the control peptide,[6],41.5
same,ratio of its own IC50 to that of the control peptide,[7],263
DGVLACAIATHAKIR (Synthetic peptide) [HDM26A],ratio of its own IC50 to that of the control peptide,[8],0.61
same,ratio of its own IC50 to that of the control peptide,[9],42.3
same,ratio of its own IC50 to that of the control peptide,[5],16.3
"TAIFQDTVRAEMTK (Synthetic peptide, 79.1% purity) [HDM48]",ratio of its own IC50 to that of the control peptide,[5],15.7
same,ratio of its own IC50 to that of the control peptide,[6],13.6
same,ratio of its own IC50 to that of the control peptide,[10],211
"EAVFEANQNTKTAK (Synthetic peptide, 90.3% purity) [HDM22A]",ratio of its own IC50 to that of the control peptide,[11],329
same,ratio of its own IC50 to that of the control peptide,[6],80
"KPFQLEAVFEANQNT (Synthetic peptide, 88.7% purity) [HDM21]",ratio of its own IC50 to that of the control peptide,[9],92
same,ratio of its own IC50 to that of the control peptide,[11],11.2
same,ratio of its own IC50 to that of the control peptide,[6],11.7
"RTVTPIRMQGGCG (Synthetic peptide, 79.6% purity) [HDM02]",ratio of its own IC50 to that of the control peptide,[4],80
same,ratio of its own IC50 to that of the control peptide,[8],0.03
"VSMEYDLAYKLGDLH (Synthetic peptide, 66.9% purity) [HDM40A]",ratio of its own IC50 to that of the control peptide,[5],2.29
same,ratio of its own IC50 to that of the control peptide,[6],6
"DGLEVDVPGIDPNACH (Synthetic peptide, 66.7% purity) [HDM23A]",ratio of its own IC50 to that of the control peptide,[8],0.76
same,ratio of its own IC50 to that of the control peptide,[10],347
CIIHRGKPFQLEA (modifications not checked) [HDM20],ratio of its own IC50 to that of the control peptide,[12],28
same,ratio of its own IC50 to that of the control peptide,[13],1.1
same,ratio of its own IC50 to that of the control peptide,[14],2.37
same,ratio of its own IC50 to that of the control peptide,[15],242
"HDDVVSMEYDLAYKL (Synthetic peptide, 80.9% purity) [HDM39A]",ratio of its own IC50 to that of the control peptide,[8],0.1
same,ratio of its own IC50 to that of the control peptide,[11],76.2
same,ratio of its own IC50 to that of the control peptide,[5],0.71
B1,ratio of its own IC50 to that of the control peptide,[16],0.97
"KPFQLEAVFEANQNTK (Synthetic peptide, 90.1% purity) [HDM21A]",ratio of its own IC50 to that of the control peptide,[9],200
same,ratio of its own IC50 to that of the control peptide,[11],52.2
same,ratio of its own IC50 to that of the control peptide,[6],10.3
"DTVRAEMTKVLAP (Synthetic peptide, 69.5% purity) [HDM49]",ratio of its own IC50 to that of the control peptide,[4],671
same,ratio of its own IC50 to that of the control peptide,[8],1.7
"IDLRQMRTVTPIR (Synthetic peptide, 79.2% purity) [HDM01]",ratio of its own IC50 to that of the control peptide,[5],16
same,ratio of its own IC50 to that of the control peptide,[10],19.2
"RNQSLDLAEQELVDCASQH (Synthetic peptide, 60.1% purity) [HDM03C]",ratio of its own IC50 to that of the control peptide,[8],0.16
"RNIQVRGLKQMKRVG (Synthetic peptide, 74.7% purity) [HDM34]",ratio of its own IC50 to that of the control peptide,[4],769
same,ratio of its own IC50 to that of the control peptide,[6],3.38
same,ratio of its own IC50 to that of the control peptide,[7],3.7
"RGKPFQLEAVFEANQNT (Synthetic peptide, 82.6% purity) [HDM21B]",ratio of its own IC50 to that of the control peptide,[9],13.5
same,ratio of its own IC50 to that of the control peptide,[11],0.78
same,ratio of its own IC50 to that of the control peptide,[6],4.1
"RYVAREQSCRRPN (Synthetic peptide, 79.7% purity) [HDM06]",ratio of its own IC50 to that of the control peptide,[8],0.86
same,ratio of its own IC50 to that of the control peptide,[6],30.4
